Data on two molecules can be found in US20040048289A1, “Magnetic particle membrane-specific protein” (priority 2000, published 2004).

Data set [1] can be described thus: GTPase activity (hydrolysis of 32P-labelled GTP, PEI cellulose TLC, bioimaging analyzer). Format: biochemical. As to conditions: immunoprecipitate on anti-HA antibody sepharose, one hour at 30° C., FIG. 5.
A short description of data set [2]: GTP binding ability (UV cross-linking with [γ-35S] GTP, SDS-PAGE, autoradiography). The settings on record: [γ-35S] GTP 1 μM, one hour at 30° C., protein expressed in E. coli DH5α. How it is done:
As Mms 16 of the present invention contained many GTP binding proteins and homologous sequences, the GTP binding ability of Mms 16 was investigated as follows. 1 μl of [γ-^35S] GTP (1 μM; 1,250 Ci/mmol) and cell homogenate were mixed in 20 μl binding buffer (50 mM Tris-HCl, 5 mM MgCl2, 1 mM EDTA, 0.3% Tween 20), and kept still for one hour at 30° C. Then, the obtained reaction mixture was kept still on ice for 20 minutes, and ultraviolet bridging was performed between GTP and protein by using an ultraviolet lamp. Subsequently, ½ amount of 3× sample buffer was added to the reaction solution to denature the protein, and sepharose beads were precipitated by centrifugation, supernatant was loaded onto 15% (w/v) acrylamide gel. After SDS-PAGE, the gel was dried and wrapped in Saran Wrap, and detection was conducted by autoradiography.
As a result, in addition to the protein that binds to [γ-^35S] […] GTP. In case where [α-^32P] GTP is used, [α-^32P] GTP binding type of GTPase is not observed because GDP also dissociates from GTPase when phosphoric acid in position γ dissociates from GTP binding type GTPase by hydrolysis activity. However, in case where [γ-^35S] GTP is used, it is possible to show the presence of GTPase because S is binding to 5′ of phosphoric acid in position γ, and therefore, hydrolysis is not caused by GTPase.

For the molecule “Mms 16-HA fusion protein: Mms 16 fused at C-terminal with hemagglutinin epitope tag (YPYDVPDYA), expressed in E. coli from pTrc 16HA”, the GTPase activity entry in data set [1] is “[α-^32P] GTP was hydrolyzed”.

B1: Mms 16: 16 kDa protein specific to a magnetic particle membrane of Magnetospirillum sp. AMB-1, amino acid sequence Seq. ID No. 2 (protein, listed as Magnetospirillum sp.)
chain: MAAKQTEQFFDFDVAKYLGDFKVPGVDVETIVANQRKNIEALTQANKLAFEGLQNVVKRQVEILRQTMDEVAQVSKDFAEPGSPQGKAAKQAEFAKDAFERALXNARELAEMIAKANSEAFDLLNKXFTQSLDEAREVFTKAGKK
modifications: X: residue not identified in the source
notes: 16 kDa protein specific to a magnetic particle membrane of Magnetospirillum sp; ID No. 2
Consider B1, for which the GTP binding ability result in data set [2] is “apparently bind to [γ-^35S] GTP”. The GTPase activity entry in data set [1] is listed as “has GTPase activity”.
